What all share (assay): cell-based or functional assay
Assay [1] has as its target T1, human GIP receptor (human, UniProt P48546 22-466).
T1 sequence (looked up): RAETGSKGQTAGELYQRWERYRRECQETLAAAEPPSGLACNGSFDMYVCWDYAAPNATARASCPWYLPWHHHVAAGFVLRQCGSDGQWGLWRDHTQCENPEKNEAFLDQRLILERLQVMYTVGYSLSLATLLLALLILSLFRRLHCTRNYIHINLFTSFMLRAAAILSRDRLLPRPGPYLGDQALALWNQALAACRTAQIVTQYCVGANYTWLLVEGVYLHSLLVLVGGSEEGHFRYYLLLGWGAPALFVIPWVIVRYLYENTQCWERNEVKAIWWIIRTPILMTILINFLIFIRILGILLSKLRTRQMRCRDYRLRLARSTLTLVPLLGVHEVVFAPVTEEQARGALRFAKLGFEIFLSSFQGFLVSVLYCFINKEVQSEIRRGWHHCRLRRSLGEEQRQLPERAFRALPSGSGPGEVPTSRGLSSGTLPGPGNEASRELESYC

Assay [2] deals with T1, human GIP receptor. The source holds these as a separate data set.
Assay [3] addresses human GLP-1 receptor (human, UniProt P43220 24-463).

Starred links: 1 amine or outer side, 2 acyl side, 3 side chain; linkers in the order of their positions; H or OH if unused. Non-standard residues stand in square brackets, D forms with d. Groups on a side chain read outwards from the residue. *: point of attachment. C20 diacid = O=C(O)CCCCCCCCCCCCCCCCCCC(=O)*; γGlu = O=C(O)[C@H](CCC(=O)[*:2])N[*:1]; Aib = CC(C)(N)C(=O)O

B1: Compound 39 (peptide)
peptide: H-Y[Aib]EGTFISDYSIELDKK([Peg3-Peg3-γGlu-C20 diacid])AAQDFINWLLAQGPSSGAPPPS-NH2
With B1, the “EC50, hGIP-R level of cAMP (HEK293 cells expressing human GIP R)” value (“EC50, hGIP-R level of cAMP” for short) in assay [1] is 0.007 nM. In addition, the “EC50 hGIP R (cAMP, HEK293 cells expressing the GIP R)” value (“EC50 hGIP R” below) in assay [2] worked out at 0.001 nM. Also, in assay [3], the “EC50 hGLP1 R (cAMP, HEK293 cells expressing the GLP-1R)” value (“EC50 hGLP1 R” below) was > 100 nM.

B2: Compound 32 (peptide)
peptide: H-Y[Aib]EGTFISDYSIELDKK([Peg3-Peg3-γGlu-C20 diacid])AAQDFIEWLLAGPSSGAPPPS-NH2
For B2, the “EC50, hGIP-R level of cAMP” value in assay [1] was 0.02 nM. In addition, the “EC50 hGIP R” value in assay [2] was found to be 0.012 nM. For the same molecule, the “EC50 hGLP1 R” value in assay [3] was > 100 nM.

B3: Compound 30 (peptide)
peptide: H-Y[Aib]EGTFISDYSIELDKK([Peg3-Peg3-γGlu-C20 diacid])AAQDFVNWLLAAGPSSGAPPPS-NH2
On to B3, for which, in assay [1], the “EC50, hGIP-R level of cAMP” value turned out to be 0.009 nM. Besides, the “EC50 hGIP R” value in assay [2] stood at 0.014 nM. In addition, the “EC50 hGLP1 R” value in assay [3] is > 10 nM.

B4: Compound 11 (peptide)
peptide: H-Y[Aib]EGTFISDYSIELEKK([Peg3-Peg3-γGlu-C20 diacid])AAKEFVNWLLAQGPSSGAPPPS-NH2
Take B4: the “EC50, hGIP-R level of cAMP” value in assay [1] is 0.009 nM. In addition, in assay [2], the “EC50 hGIP R” value turned out to be 0.008 nM. In addition, in assay [3], the “EC50 hGLP1 R” value was > 3 nM.

B5: Compound 23 (peptide)
peptide: H-Y[Aib]EGTFISDYSIELDKIAQRAFIEWLLAGPSSGAPPPSK([Peg3-Peg3-γGlu-C20 diacid])-NH2
B5: the “EC50, hGIP-R level of cAMP” value in assay [1] stood at 0.01 nM. The “EC50 hGIP R” value in assay [2] was 0.005 nM. Further, in assay [3], the “EC50 hGLP1 R” value is > 10 nM.

B6: Compound 40 (peptide)
peptide: H-Y[Aib]EGTFISDYSIELDKK([Peg3-Peg3-γGlu-C20 diacid])AAQAFIEWLLAQGPSSGAPPPS-NH2
In the case of B6, the “EC50, hGIP-R level of cAMP” value in assay [1] amounted to 0.01 nM. For the same molecule, the “EC50 hGIP R” value in assay [2] came to 0.007 nM. Moreover, the “EC50 hGLP1 R” value in assay [3] is > 10 nM.

B7: Compound 38 (peptide)
peptide: H-Y[Aib]EGTFISDYSIELDKK([Peg3-Peg3-γGlu-C20 diacid])AAQDFIEWLLAQGPSSGAPPPS-NH2
In the case of B7, the “EC50, hGIP-R level of cAMP” value in assay [1] was determined as 0.001 nM. Besides, the “EC50 hGIP R” value in assay [2] was determined as 0.017 nM. The “EC50 hGLP1 R” value in assay [3] was > 100 nM.

B8: Compound 22 (peptide)
peptide: H-Y[Aib]EGTFISDYSIELDKK([Peg3-Peg3-γGlu-C20 diacid])AQKEFVEWLLAAGPSSGAPPPS-NH2
As for B8, the “EC50, hGIP-R level of cAMP” value in assay [1] was 0.005 nM. For the same molecule, the “EC50 hGIP R” value in assay [2] was found to be 0.007 nM. Also, the “EC50 hGLP1 R” value in assay [3] was > 10 nM.

B9: Compound 35 (peptide)
peptide: H-Y[Aib]EGTFISDYSK([Peg3-Peg3-γGlu-C20 diacid])ELDKIAQRAFIEWLLAQGPSSGAPPPS-NH2
B9: in assay [1], the “EC50, hGIP-R level of cAMP” value is 0.008 nM. Moreover, the “EC50 hGIP R” value in assay [2] is 0.011 nM. Also, in assay [3], the “EC50 hGLP1 R” value was > 3 nM.

B10: Compound 28 (peptide)
peptide: H-Y[Aib]EGTFISDYSIELDKIAQRAFIEWLLAQGPSSGAPPPSK([Peg3-Peg3-γGlu-C20 diacid])-NH2
Regarding B10, the “EC50, hGIP-R level of cAMP” value in assay [1] was determined as 0.007 nM. Also, the “EC50 hGIP R” value in assay [2] amounted to 0.013 nM. For the same molecule, in assay [3], the “EC50 hGLP1 R” value was > 3 nM.

B11: Compound 34 (peptide)
peptide: H-Y[Aib]EGTFISDYSIELDK([Peg3-Peg3-γGlu-C20 diacid])IAQRAFIEWLLAQGPSSGAPPPS-NH2
On to B11, for which the “EC50, hGIP-R level of cAMP” value in assay [1] came out at 0.011 nM. The “EC50 hGIP R” value in assay [2] was 0.017 nM. In addition, the “EC50 hGLP1 R” value in assay [3] was > 10 nM.

B12: Compound 27 (peptide)
peptide: H-Y[Aib]EGTFISDYSIELDKIAAQDFVEWLLAGPSSGAPPPSK([Peg3-Peg3-γGlu-C20 diacid])-NH2
Consider B12, for which the “EC50, hGIP-R level of cAMP” value in assay [1] came out at 0.013 nM. Further, the “EC50 hGIP R” value in assay [2] is 0.017 nM. The “EC50 hGLP1 R” value in assay [3] is > 10 nM.

The record behind these values is US10253078 (ZEALAND PHARMA A S, dated 2019).
